Patent US20230059341A1 (TESARO, published 2023)
Like-named read-outs stand apart in the source and are kept apart here.

B1: Dostarlimab, H2O2 treated, 25° C., 2 weeks (antibody, human IgG4 S228P, kappa)
heavy: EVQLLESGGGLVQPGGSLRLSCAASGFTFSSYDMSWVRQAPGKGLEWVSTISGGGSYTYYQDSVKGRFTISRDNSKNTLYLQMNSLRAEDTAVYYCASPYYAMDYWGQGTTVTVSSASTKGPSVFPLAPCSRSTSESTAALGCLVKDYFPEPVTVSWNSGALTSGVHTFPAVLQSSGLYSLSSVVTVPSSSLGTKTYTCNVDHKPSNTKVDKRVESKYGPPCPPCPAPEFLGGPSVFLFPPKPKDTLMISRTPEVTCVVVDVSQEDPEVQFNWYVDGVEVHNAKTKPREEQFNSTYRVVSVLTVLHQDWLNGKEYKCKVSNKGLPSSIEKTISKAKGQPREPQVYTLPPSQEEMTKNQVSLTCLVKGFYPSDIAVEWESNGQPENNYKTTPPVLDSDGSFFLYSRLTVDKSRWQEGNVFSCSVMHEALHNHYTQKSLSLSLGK
light: DIQLTQSPSFLSAYVGDRVTITCKASQDVGTAVAWYQQKPGKAPKLLIYWASTLHTGVPSRFSGSGSGTEFTLTISSLQPEDFATYYCQHYSSYPWTFGQGTKLEIKRTVAAPSVFIFPPSDEQLKSGTASVVCLLNNFYPREAKVQWKVDNALQSGNSQESVTEQDSKDSTYSLSSTLTLSKADYEKHKVYACEVTHQGLSSPVTKSFNRGEC
modifications: percent of population: Trp 50 oxidation 1.3; Asn 137 deamidation 1.3; percent of population: Met 34 oxidation 28.8; Met 83 oxidation 1.1; Met 103 oxidation 86.1; Met 248 oxidation 99.6; Asn 311 deamidation 7.4; Met 354 oxidation 99.8; Asn 380 deamidation 10.5; Asn 385 deamidation 1.9; Met 424 oxidation 98.1; Lys 443 clipped 97.7
notes: 0.1% (v:v) H2O2; also called H2O2, 25° C., 2 weeks
B2: Dostarlimab, AAPH treated, T0 (exposed to AAPH, no incubation) (antibody, human IgG4 S228P, kappa)
heavy: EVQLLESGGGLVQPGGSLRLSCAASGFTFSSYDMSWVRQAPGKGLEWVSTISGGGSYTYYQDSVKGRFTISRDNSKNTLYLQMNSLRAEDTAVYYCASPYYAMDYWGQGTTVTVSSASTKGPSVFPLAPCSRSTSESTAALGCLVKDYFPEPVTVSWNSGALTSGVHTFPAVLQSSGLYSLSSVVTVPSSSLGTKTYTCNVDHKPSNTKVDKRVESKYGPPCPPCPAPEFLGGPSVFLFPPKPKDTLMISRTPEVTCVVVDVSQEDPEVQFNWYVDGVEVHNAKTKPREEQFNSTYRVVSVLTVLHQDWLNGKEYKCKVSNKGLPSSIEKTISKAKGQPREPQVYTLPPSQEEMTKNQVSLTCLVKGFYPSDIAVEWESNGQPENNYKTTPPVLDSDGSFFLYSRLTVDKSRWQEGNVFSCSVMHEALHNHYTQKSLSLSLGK
light: DIQLTQSPSFLSAYVGDRVTITCKASQDVGTAVAWYQQKPGKAPKLLIYWASTLHTGVPSRFSGSGSGTEFTLTISSLQPEDFATYYCQHYSSYPWTFGQGTKLEIKRTVAAPSVFIFPPSDEQLKSGTASVVCLLNNFYPREAKVQWKVDNALQSGNSQESVTEQDSKDSTYSLSSTLTLSKADYEKHKVYACEVTHQGLSSPVTKSFNRGEC
modifications: percent of population: Asn 137 deamidation 1.0; percent of population: Met 248 oxidation 3.3; Asp 261/266/276 isomerization 1.0; Asn 311 deamidation 6.3; Asn 380 deamidation 9.5; Asn 385 deamidation 1.0; Asn 430 deamidation 1.3; Lys 443 clipped 97.8
notes: 5 mM AAPH, quenched at once with methionine; also called AAPH T0; AAPH Oxidation
B3: Dostarlimab, AAPH treated, 40° C., 1 day (antibody, human IgG4 S228P, kappa)
heavy: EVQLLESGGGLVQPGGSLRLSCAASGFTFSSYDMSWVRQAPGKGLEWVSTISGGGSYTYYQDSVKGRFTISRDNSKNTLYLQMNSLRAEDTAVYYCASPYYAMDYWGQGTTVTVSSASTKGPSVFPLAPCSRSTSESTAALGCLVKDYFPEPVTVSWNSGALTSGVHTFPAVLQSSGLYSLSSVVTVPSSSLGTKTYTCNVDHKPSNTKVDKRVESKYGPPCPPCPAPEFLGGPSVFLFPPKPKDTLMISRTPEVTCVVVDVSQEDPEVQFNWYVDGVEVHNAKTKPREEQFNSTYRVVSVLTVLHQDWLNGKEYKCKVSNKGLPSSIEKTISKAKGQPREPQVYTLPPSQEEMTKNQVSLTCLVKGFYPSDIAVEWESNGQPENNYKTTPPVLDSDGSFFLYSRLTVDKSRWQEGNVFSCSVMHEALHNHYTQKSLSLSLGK
light: DIQLTQSPSFLSAYVGDRVTITCKASQDVGTAVAWYQQKPGKAPKLLIYWASTLHTGVPSRFSGSGSGTEFTLTISSLQPEDFATYYCQHYSSYPWTFGQGTKLEIKRTVAAPSVFIFPPSDEQLKSGTASVVCLLNNFYPREAKVQWKVDNALQSGNSQESVTEQDSKDSTYSLSSTLTLSKADYEKHKVYACEVTHQGLSSPVTKSFNRGEC
modifications: percent of population: Trp 50 oxidation 38.9; Asn 137 deamidation 1.2; percent of population: Met 103 oxidation 2.5; Met 248 oxidation 47.7; Asn 311 deamidation 6.5; Met 354 oxidation 8.2; Asn 380 deamidation 8.6; Asn 385 deamidation 1.3; Met 424 oxidation 26.2; Asn 430 deamidation 1.1; Lys 443 clipped 96.7
notes: 5 mM AAPH; HMW 4.9%; also called AAPH, 40° C., 1 day; AAPH Day 1
B4: Dostarlimab, AAPH treated, 40° C., 3 days (antibody, human IgG4 S228P, kappa)
heavy: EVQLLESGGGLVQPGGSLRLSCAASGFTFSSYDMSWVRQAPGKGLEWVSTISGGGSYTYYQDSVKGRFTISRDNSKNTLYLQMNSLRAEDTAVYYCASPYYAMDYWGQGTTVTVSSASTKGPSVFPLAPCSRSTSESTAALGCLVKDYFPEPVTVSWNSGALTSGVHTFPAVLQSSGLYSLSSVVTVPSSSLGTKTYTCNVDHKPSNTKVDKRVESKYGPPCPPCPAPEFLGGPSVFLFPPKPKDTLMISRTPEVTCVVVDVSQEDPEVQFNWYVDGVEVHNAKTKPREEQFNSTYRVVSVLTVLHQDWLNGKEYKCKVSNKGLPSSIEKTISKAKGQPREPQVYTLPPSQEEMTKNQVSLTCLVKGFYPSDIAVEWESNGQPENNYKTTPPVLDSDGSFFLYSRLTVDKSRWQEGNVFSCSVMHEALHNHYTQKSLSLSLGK
light: DIQLTQSPSFLSAYVGDRVTITCKASQDVGTAVAWYQQKPGKAPKLLIYWASTLHTGVPSRFSGSGSGTEFTLTISSLQPEDFATYYCQHYSSYPWTFGQGTKLEIKRTVAAPSVFIFPPSDEQLKSGTASVVCLLNNFYPREAKVQWKVDNALQSGNSQESVTEQDSKDSTYSLSSTLTLSKADYEKHKVYACEVTHQGLSSPVTKSFNRGEC
modifications: percent of population: Trp 50 oxidation 74.2; percent of population: Met 103 oxidation 7.0; Met 248 oxidation 88.4; Asp 261/266/276 isomerization 1.0; Asn 311 deamidation 6.6; Met 354 oxidation 44.8; Asn 380 deamidation 9.6; Asn 385 deamidation 1.2; Met 424 oxidation 78.2; Lys 443 clipped 97.7
notes: 5 mM AAPH; HMW 11.8%; also called AAPH, 40° C., 3 days
B5: Dostarlimab, AAPH treated, 40° C., 5 days (antibody, human IgG4 S228P, kappa, V domains shown)
VH: EVQLLESGGGLVQPGGSLRLSCAASGFTFSSYDMSWVRQAPGKGLEWVSTISGGGSYTYYQDSVKGRFTISRDNSKNTLYLQMNSLRAEDTAVYYCASPYYAMDYWGQGTTVTVSS
VL: DIQLTQSPSFLSAYVGDRVTITCKASQDVGTAVAWYQQKPGKAPKLLIYWASTLHTGVPSRFSGSGSGTEFTLTISSLQPEDFATYYCQHYSSYPWTFGQGTKLEIKR
modifications: percent of population: Trp 50 oxidation 86.8; PTM levels of this sample are not tabulated
notes: 5 mM AAPH; HMW 16.4%; also called AAPH, 40° C., 5 days
B6: Dostarlimab, thermally degraded, 40° C., 3 weeks (antibody, human IgG4 S228P, kappa)
heavy: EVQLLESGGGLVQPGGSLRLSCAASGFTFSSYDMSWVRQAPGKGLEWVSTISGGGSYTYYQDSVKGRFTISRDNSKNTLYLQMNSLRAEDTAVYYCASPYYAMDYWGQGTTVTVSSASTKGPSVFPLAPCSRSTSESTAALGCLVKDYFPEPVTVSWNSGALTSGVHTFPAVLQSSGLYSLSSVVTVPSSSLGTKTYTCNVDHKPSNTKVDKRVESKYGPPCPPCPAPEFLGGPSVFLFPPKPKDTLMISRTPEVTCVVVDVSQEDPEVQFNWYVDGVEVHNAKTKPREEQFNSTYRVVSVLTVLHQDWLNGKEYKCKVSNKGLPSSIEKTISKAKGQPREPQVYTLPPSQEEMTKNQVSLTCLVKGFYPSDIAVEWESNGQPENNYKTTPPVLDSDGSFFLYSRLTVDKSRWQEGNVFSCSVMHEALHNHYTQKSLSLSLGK
light: DIQLTQSPSFLSAYVGDRVTITCKASQDVGTAVAWYQQKPGKAPKLLIYWASTLHTGVPSRFSGSGSGTEFTLTISSLQPEDFATYYCQHYSSYPWTFGQGTKLEIKRTVAAPSVFIFPPSDEQLKSGTASVVCLLNNFYPREAKVQWKVDNALQSGNSQESVTEQDSKDSTYSLSSTLTLSKADYEKHKVYACEVTHQGLSSPVTKSFNRGEC
modifications: percent of population: Asp 151/167 isomerization 1.1; percent of population: Met 248 oxidation 5.4; Asp 261/266/276 isomerization 2.8; Asn 311 deamidation 6.5; Met 354 oxidation 1.9; Asn 380 deamidation 10.0; Asn 385 deamidation 2.1; Met 424 oxidation 1.7; Asn 430 deamidation 1.2; Lys 443 clipped 97.8
notes: Mixture; HMW 1.4%, acidic peaks 33.8%
B7: Dostarlimab, thermally degraded, 50° C., 3 weeks (antibody, human IgG4 S228P, kappa)
heavy: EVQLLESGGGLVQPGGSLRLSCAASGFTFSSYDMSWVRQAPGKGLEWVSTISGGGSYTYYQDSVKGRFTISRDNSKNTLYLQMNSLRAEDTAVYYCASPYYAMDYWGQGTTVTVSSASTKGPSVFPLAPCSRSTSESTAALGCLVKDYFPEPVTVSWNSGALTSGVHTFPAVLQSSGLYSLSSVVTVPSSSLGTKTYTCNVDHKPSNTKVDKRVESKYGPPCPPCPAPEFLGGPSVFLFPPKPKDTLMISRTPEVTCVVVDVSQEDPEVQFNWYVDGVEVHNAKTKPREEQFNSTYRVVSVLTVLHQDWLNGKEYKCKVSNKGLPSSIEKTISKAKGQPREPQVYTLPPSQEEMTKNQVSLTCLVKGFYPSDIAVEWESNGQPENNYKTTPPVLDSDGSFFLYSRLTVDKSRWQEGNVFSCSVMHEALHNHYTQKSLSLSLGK
light: DIQLTQSPSFLSAYVGDRVTITCKASQDVGTAVAWYQQKPGKAPKLLIYWASTLHTGVPSRFSGSGSGTEFTLTISSLQPEDFATYYCQHYSSYPWTFGQGTKLEIKRTVAAPSVFIFPPSDEQLKSGTASVVCLLNNFYPREAKVQWKVDNALQSGNSQESVTEQDSKDSTYSLSSTLTLSKADYEKHKVYACEVTHQGLSSPVTKSFNRGEC
modifications: percent of population: Asp 151/167 isomerization 2.5; percent of population: Met 248 oxidation 7.6; Asp 261/266/276 isomerization 13.1; Asn 311 deamidation 7.4; Met 354 oxidation 4.2; Asn 380 deamidation 14.7; Asn 385 deamidation 5.9; Asp 395/397/409 isomerization 2.2; Met 424 oxidation 3.5; Asn 430 deamidation 2.0; Lys 443 clipped 97.8
notes: Mixture; HMW 11.2%, acidic peaks 59.1%; also called Thermal Degradation

Tests used:
[1] = molecular target: T1, human PD-1 on PD-1 effector cells (Jurkat T cells, Promega #J1155) (human, UniProt Q15116 25-288); test: cell-based or functional assay
T1 sequence (Q15116 25-288): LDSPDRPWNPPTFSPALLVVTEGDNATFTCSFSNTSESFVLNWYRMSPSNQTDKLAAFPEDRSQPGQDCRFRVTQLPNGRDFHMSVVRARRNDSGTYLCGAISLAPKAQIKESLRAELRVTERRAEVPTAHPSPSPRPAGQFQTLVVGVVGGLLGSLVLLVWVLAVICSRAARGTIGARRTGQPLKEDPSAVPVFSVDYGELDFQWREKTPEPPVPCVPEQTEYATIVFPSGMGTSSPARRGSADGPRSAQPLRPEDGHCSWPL

[2] = molecular target: T2, PD-1 protein constitutively expressed on engineered CHO K1 cells (UniProt Q15116 25-288, limits assumed); test: MSD potency assay: competitive binding on CHO K1 cells expressing PD-1, inhibition of PD-L1-mFc binding, ECL; percent of reference material
T2 construct: whole, on cells; also called programmed cell death protein 1
T2 sequence (Q15116 25-288 limits assumed, change not shown): as the sequence (Q15116 25-288) above
Method: (§1) The Meso Scale Discovery (MSD) potency assay employs engineered CHO K1 cells constitutively expressing the PD-1 protein. […] The readout is measured using a specific detection antibody mixture that releases an electrochemiluminescence (ECL) signal that can be quantified.

[3] = molecular target: T3, Neonatal Fc Receptor (FcRn) (UniProt P55899 24-297; P61769 21-119, limits assumed); test: FcRn binding assay, BIACORE (SPR)
T3 sequence (P55899 24-297 limits assumed, chain 1 of 2): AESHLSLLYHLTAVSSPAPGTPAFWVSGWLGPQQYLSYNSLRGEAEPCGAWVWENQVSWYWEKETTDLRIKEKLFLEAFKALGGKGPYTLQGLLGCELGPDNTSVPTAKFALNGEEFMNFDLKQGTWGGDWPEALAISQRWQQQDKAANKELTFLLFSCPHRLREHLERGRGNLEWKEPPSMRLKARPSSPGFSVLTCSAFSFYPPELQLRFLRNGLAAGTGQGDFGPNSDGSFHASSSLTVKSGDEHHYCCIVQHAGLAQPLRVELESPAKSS
T3 sequence (P61769 21-119 limits assumed, chain 2 of 2): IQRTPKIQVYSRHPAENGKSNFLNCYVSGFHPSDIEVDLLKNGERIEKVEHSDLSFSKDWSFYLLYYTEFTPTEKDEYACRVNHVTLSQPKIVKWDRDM

[4] = molecular target: T1, human PD-1 on PD-1 effector cells …; test: cell-based or functional assay; remark: listed apart in the source
[5] = molecular target: T2, PD-1 protein constitutively expressed …; test: MSD potency assay: competitive binding on CHO K1 cells expressing PD-1, inhibition of PD-L1-mFc binding, ECL; percent of reference material; remark: listed apart in the source
Method: as §1

[6] = molecular target: T3, Neonatal Fc Receptor (FcRn); test: FcRn binding assay, BIACORE (SPR); remark: listed apart in the source
[7] = molecular target: T1, human PD-1 on PD-1 effector cells …; test: cell-based or functional assay; remark: listed apart in the source
[8] = molecular target: T2, PD-1 protein constitutively expressed …; test: MSD potency assay: competitive binding on CHO K1 cells expressing PD-1, inhibition of PD-L1-mFc binding, ECL; percent of reference material; remark: listed apart in the source
Method: as §1

[9] = molecular target: T3, Neonatal Fc Receptor (FcRn); test: FcRn binding assay, BIACORE (SPR); remark: listed apart in the source
[10] = molecular target: T1, human PD-1 on PD-1 effector cells …; test: cell-based or functional assay; remark: listed apart in the source

Binder	Relative Potency, MSD Binding [5]	Kd [6]	Relative Potency, Cell-Based Bioassay [7]	also measured
B1	–	–	–	Relative Potency, Cell-Based Bioassay [1]: 47%; Relative Potency, MSD Binding [2]: 74%; Kd [3]: 12.4 µM
B2	79%	1.66 µM	102%	Relative Potency (Potency by cell-based bioassay) [4]: 102%
B3	76%	2.34 µM	44%	–
B4	57%	8.33 µM	14%	–
B5	47%	–	5%	–
B6	–	–	–	Relative Potency, MSD Binding [8]: 88%; Kd [9]: 2.25 µM; Relative Potency, Cell-Based Bioassay [10]: 94%
B7	–	–	–	Relative Potency (Potency by cell-based bioassay) [4]: 86%; Relative Potency, MSD Binding [8]: 76%; Kd [9]: 2.29 µM; Relative Potency, Cell-Based Bioassay [10]: 86%
